# Source: publication PMC8567202, “Phosphoinositide-binding activity of Smad2 is essential for its function in TGF-β signaling” (The Journal of Biological Chemistry, 2021)
# Key:
# [1] = SPR membrane binding to POPC/POPS/PI(3,4,5)P3 vesicles; conditions: POPC/POPS/PI(3,4,5)P3 (or PIP3) (77:20:3), 1 μM Smad2
# Protocol: (§1) Figure 1 Membrane-binding properties of Smad2 FL protein and MH2 domain determined by SPR analysis.A, PtdInsP selectivity of Smad2-FL determined using POPC/POPS/PtdInsP (77:20:3 in mole ratio) LUVs coated on the L1 sensor chip. The protein concentration was 100 nM. PIP3 indicates PI(3,4,5)P3. B, determination of Kd for binding of Smad2 FL to different LUVs. The protein concentration was varied from 0 to 500 nM. C, PI(4,5)P2 concentration dependence of membrane binding of Smad2-FL determined using POPC/POPS/PI(4,5)P2 (77-x:20:x, x = 0–5 mol%) LUVs. The protein concentration was 100 nM. D, PtdInsP selectivity of the Smad2 MH2 domain determined using POPC/POPS/PtdInsP (77:20:3 in mole ratio) LUVs. […] RUmax values determined for different vesicles at 1 μM Smad2 were: 280 ± 20 for POPC/POPS/PI(4,5)P2 (77:20:3), 370 ± 10 for POPC/POPS/PI(3,4)P2 (77:20:3), 400 ± 15 for POPC/POPS/PI(3,4,5)P3 (or PIP3) (77:20:3), 400 ± 20 for POPC/POPS/PI(3)P (77:20:3), and 380 ± 20 for POPC/POPS (80:20). […]
# (§2) All SPR measurements were performed at 23 °C in 20 mM Tris, pH 7.4, containing 0.16 M NaCl using a lipid-coated L1 chip in the BIACORE X-100 system (GE Healthcare) as described previously ([19], [38]). […] Sensorgrams were collected for both membrane association and dissociation but the only the association phases were further analyzed because the dissociation phases were often too slow for analysis. […]
# [2] = SPR membrane binding to POPC/POPS/PI(3,4)P2 vesicles; conditions: POPC/POPS/PI(3,4)P2 (77:20:3), 1 μM Smad2
# Protocol: as §1, §2
molecule,measurement,setting,value
"Smad2 WT: bacterially expressed full-length Smad2 wild-type (protein, left off: His6, N-terminal, state not stated, bacterially expressed full-length Smad2 wild-type) MSSILPFTPPVVKRLLGWKKSAGGSGGAGGGEQNGQEEKWCEKAVKSLVKKLKKTGRLDELEKAITTQNCNTKCVTIPSTCSEIWGLSTANTVDQWDTTGLYSFSEQTRSLDGRLQVSHRKGLPHVIYCRLWRWPDLHSHHELKAIENCEYAFNLKKDEVCVNPYHYQRVETPVLPPVLVPRHTEILTELPPLDDYTHSIPENTNFPAGIEPQSNYIPETPPPGYISEDGETSDQQLNQSMDTGSPAELSPTTLSPVNHSLDLQPVTYSEPAFWCSIAYYELNQRVGETFHASQPSLTVDGFTDPSNSERFCLGLLSNVNRNATVEMTRRHIGRGVRLYYIGGEVFAECLSDSAIFVQSPNCNQRYGWHPATVCKIPPGCNLKIFNNQEFAALLAQSVNQGFEAVYQLTRMCTIRMSFVKGWGAEYRRQTVTSTPCWIELHLNGPLQWLDKVLTQMGSPSVRCSSMS",RUmax,[1],400 ± 15
same,RUmax,[2],370 ± 10
